Measurements published in patent US12617870B2, “Methods of reversing ticagrelor activity” (SFJ Pharmaceuticals X, LTD., priority 2018, dated 2026).
Where “and” joins values, the source holds several entries; their conditions need not be identical. Identical values can stand only once. Entries after “also recorded” stand apart in the source; their conditions may differ.

Assays:
[1] = tested on: platelet aggregation (ticagrelor antiplatelet activity); assay type: in vivo, human
Method: Platelet function was assessed using light transmission aggregometry (LTA), VerifyNow, and vasodilator stimulated phosphoprotein (VASP) assays before and after 48 hours of ticagrelor administration […] Cohorts 7 to 10 received an 18-gram fixed dose of PB2452 via various infusion regimens or placebo. Infusions of PB2452 in these cohorts were initiated 2 hours after the last ticagrelor pretreatment dose to coincide with the peak concentration of ticagrelor. (Gurbel (2009). Subjects in all cohorts were randomized in a 3:1 ratio to receive PB2452 or placebo. The primary efficacy outcome was the effectiveness of PB2452 in reversing the antiplatelet effect of ticagrelor by analyzing platelet aggregation using light transmission aggregometry at multiple time points before and after PB2452 or placebo administration in ticagrelor pretreated subjects. Secondary efficacy outcomes were the effectiveness of ticagrelor reversal assessed using VerifyNow and the vasodilator stimulated phosphoprotein phosphorylation immunoassay (VASP). The sample size of 64 was based on clinical and practical considerations and not on a formal statistical power calculation. The sample size was considered sufficient to adequately assess the safety, efficacy, and pharmacokinetic profiles of PB2452 and the pharmacokinetic and pharmacodynamic profiles of ticagrelor. Reversal of antiplatelet effect was evaluated by comparing the mean percent of baseline platelet aggregation between PB2452 and placebo using Wilcoxon rank-sum test. Multiplicity was adjusted using the Bonferroni method. Correlations between each pair of the platelet function tests were evaluated using Pearson's correlation and Spearman's rank correlation coefficient. Mean data from subjects receiving placebo were pooled across cohorts for all presentations. Categorical variables are summarized by their frequencies and percentages, and continuous variables are presented with the number of subjects with non-missing data, mean, standard deviation, median, minimum, and maximum. Descriptive statistics are presented for each cohort, and pooled placebo and PB2452 data. For pharmacodynamic data, platelet aggregation results were compared between each cohort and pooled placebo data (cohorts 4 to 6 and cohort 7 to 10 were pooled separately). All analyses were performed with SAS software, version 9.4 (SAS Institute).

[2] = Phase 1 healthy volunteer study: immunogenicity (anti-drug antibodies); assay type: in vivo, human
Method: (§1) The primary safety outcome was the frequency and severity of treatment emergent adverse events (AEs) associated with PB2452 with or without oral ticagrelor pretreatment. Clinical laboratory test results, vital sign measurements, 12-lead ECG and continuous telemetry results, and physical examination findings were also assessed at multiple timepoints from screening to the end of the 28-day safety follow-up period. Immunogenicity was assessed before and at 7 and 28 days after PB2452 administration.
Other secondary outcomes included assessment of the PB2452 and ticagrelor pharmacokinetic profiles and evaluation of PB2452 immunogenicity at day 7 and 28 post-infusion.

[3] = tested on: platelet reactivity (VerifyNow P2Y12); test: Phase 1 healthy volunteer study: VerifyNow P2Y12 platelet reactivity (PRU); assay type: in vivo, human; conditions: sustained for 24 hours
Text: Secondary Objectives: 1) To determine the pharmacokinetics of ascending doses of IV PB2452 in the presence and absence of ticagrelor; 2) To determine the pharmacokinetics of ticagrelor and its active metabolite TAM in the presence and absence of PB2452; 3) To assess the effectiveness of a single IV PB2452 dose in reversing ticagrelor antiplatelet activity by measuring P2Y12 reaction units (PRU) with VerifyNow™ P2Y12 assay and platelet reactivity index (PRI) with vasodilator stimulated phosphoprotein (VASP) phosphorylation assay by enzyme-linked immunosorbent assay (ELISA); 3) To evaluate the pharmacokinetics and pharmacodynamics of restarting a single dose of oral ticagrelor 24 hours after IV PB2452 administration if a sixth dose of ticagrelor is given; 4) To evaluate the immunogenicity potential of PB2452 […]
(§2) The primary efficacy outcome was the effectiveness of PB2452 in reversing the antiplatelet effect of ticagrelor by analyzing platelet aggregation using light transmission aggregometry at multiple time points before and after PB2452 or placebo administration in ticagrelor pretreated subjects. Secondary efficacy outcomes were the effectiveness of ticagrelor reversal assessed using VerifyNow and the vasodilator stimulated phosphoprotein phosphorylation immunoassay (VASP).

[4] = Phase 1 healthy volunteer study: safety, treatment-emergent adverse events; assay type: in vivo, human
Text: Safety Assessments: Safety and tolerability will be assessed by monitoring and recording of AEs, clinical laboratory test results (hematology, coagulation, serum chemistry, and urinalysis), vital sign measurements (systolic and diastolic blood pressures, oral body temperature, respiratory rate, and heart rate), 12-lead ECG results, cardiac telemetry monitoring, immunogenicity, and physical examination findings.
as §1

[5] = Phase 1 healthy volunteer study: pharmacokinetics of PB2452; assay type: in vivo, human
Method: Plasma Collection: Blood samples for PK analysis of PB2452 in plasma will be collected from all subjects at the following time points: before dosing (within 10 minutes prior to the initiation of study drug infusion and up to 28 days after the initiation of study drug infusion. Specific collection times for each cohort are listed in the table below: […]

[6] = tested on: P2Y12 receptor signaling; test: Phase 1 healthy volunteer study: VASP phosphorylation ELISA (PRI); conditions: human, in vivo
Text: Secondary Objectives: 1) To determine the pharmacokinetics of ascending doses of IV PB2452 in the presence and absence of ticagrelor; 2) To determine the pharmacokinetics of ticagrelor and its active metabolite TAM in the presence and absence of PB2452; 3) To assess the effectiveness of a single IV PB2452 dose in reversing ticagrelor antiplatelet activity by measuring P2Y12 reaction units (PRU) with VerifyNow™ P2Y12 assay and platelet reactivity index (PRI) with vasodilator stimulated phosphoprotein (VASP) phosphorylation assay by enzyme-linked immunosorbent assay (ELISA); 3) To evaluate the pharmacokinetics and pharmacodynamics of restarting a single dose of oral ticagrelor 24 hours after IV PB2452 administration if a sixth dose of ticagrelor is given; 4) To evaluate the immunogenicity potential of PB2452
VASP by ELISA: 1) PRU at each assessment point; 2) Percent of baseline in PRU; 3) Maximal PRU; 4) Time to maximal PRU; 5) Time to 60%, 80%, 90% of baseline PRU
as §2

[7] = of the 48 subjects given PB2452

B1: PB2452: recombinant human IgG1λ monoclonal Fab antibody fragment that binds specifically to ticagrelor and TAM (antibody, listed as Homo sapiens)
heavy: QVQLQESGAEVKKPGSSVRVSCKASGGTFDSYSIHWVRQAPGQGLEWMGGIIPAFGTLSSAQDFQARVTISADKSTSTAYMELSGLRSEDTAVYYCARGSFDYYFWSASHPPNDALAIWGQGTLVTVSSASTKGPSVFPLAPSSKSTSGGTAALGCLVKDYFPEPVTVSWNSGALTSGVHTFPAVLQSSGLYSLSSVVTVPSSSLGTQTYICNVNHKPSNTKVDKRVEPKSCDK
light: QSVVTQPPSVSAAPGQKVTISCSGSNSDIGNNYVSWYQQLPGTAPKLLIYDNNKRPSGIPDRFSGSKSGTSATLAITGLQAGDEADYYCGTWLYDRAVGLFGGGTKVTVLGQPKAAPSVTLFPPSSEELQANKATLVCLISDFYPGAVTVAWKADSSPVKAGVETTTPSKQSNNKYAASSYLSLTPEQWKSHRSYSCQVTHEGSTVEKTVAPTECS
modifications: PB2452 VH with CH1; PB2452 VL with CL
With B1 the “time to complete restoration of platelet function” value ([1]; 3 g or 9 g PB2452 IV over 30 minutes) was ≤ 30 min, the “reversal sustained for” value ([1]; 10-minute IV bolus followed by 16-hour infusion, multiple assays) was “over 20 hours” and the onset of reversal ([1]; 10-minute IV bolus followed by 16-hour infusion, multiple assays, vs placebo P<0.0001) was ≤ 5 min. The “time to significantly increased mean platelet aggregation” value ([1]; Cohort 7, 18 g: 3.0 g bolus followed by 8 hour infusion) was ≤ 2 h, the “time to reversal after initiation of the infusion” value ([1]; Cohorts 8 to 10, 18 g: 6.0 g bolus followed by infusions for 12 or 16 hours) was ≤ 5 min and the “mean platelet aggregation restored, relative to pre-ticagrelor baseline” value ([1]; LTA, all post-treatment time points up to 20 hours) was ≥ 80 % of baseline. The “rebound in platelet activity after drug cessation” value ([1]; human, in vivo) was “no evidence of rebound”, the “effect of antibody titers on PB2452 safety or efficacy” value ([2]; human, in vivo) was “no observed effect” and the “subjects anti-drug antibody positive post-dosing” value [2, 7] was 6 (12.5%) subjects (%). For the same molecule, the “subjects with detectable anti-drug antibodies” value [2, 7] was 21 (43.8%) subjects (%), the “subjects with pre-existing (pre-dose) antibodies” value [2, 7] was 15 (31.3%) subjects (%) and the “mean VerifyNow platelet reactivity” value [3] was ≥ 180 PRU. For the same molecule, the “overall safety and tolerability” value ([4]; 0.1 to 18 g IV, healthy subjects) was “safe and well-tolerated”, the “Number of Subjects with at Least 1 TEAE” value ([4]; All PB2452 (N = 48)) was 17 (35.4%) n (%) and 17 (35.4) n (%) and the “Total Number of TEAEs” value ([4]; All PB2452 (N = 48)) was 27. The Abdominal pain ([4]; TEAE, All PB2452 (N = 48)) was 1 (2.1) n (%), the Acute respiratory failure ([4]; TEAE, All PB2452 (N = 48)) was 1 (2.1) n (%) and the Alcohol poisoning ([4]; TEAE, All PB2452 (N = 48)) was 1 (2.1) n (%). For the same molecule, the Blood urine present ([4]; TEAE, All PB2452 (N = 48)) was 1 (2.1) n (%), the Conjunctivitis ([4]; TEAE, All PB2452 (N = 48)) was 1 (2.1) n (%) and the Contusion ([4]; TEAE, All PB2452 (N = 48)) was 0 n (%). For the same molecule, the Dizziness ([4]; TEAE, All PB2452 (N = 48)) was 1 (2.1) n (%), the Eyelid irritation ([4]; TEAE, All PB2452 (N = 48)) was 0 n (%) and the Gastroenteritis ([4]; TEAE, All PB2452 (N = 48)) was 1 (2.1) n (%). The Hematuria ([4]; TEAE, All PB2452 (N = 48)) was 1 (2.1) n (%), the Infusion site bruising ([4]; TEAE, All PB2452 (N = 48)) was 4 (8.3) n (%) and the Infusion site extravasation ([4]; TEAE, All PB2452 (N = 48)) was 2 (4.2) n (%). The Infusion site reaction ([4]; TEAE, All PB2452 (N = 48)) was 1 (2.1) n (%), the “Medical device site reaction” value ([4]; TEAE, All PB2452 (N = 48)) was 3 (6.3) n (%) and the Musculoskeletal chest pain ([4]; TEAE, All PB2452 (N = 48)) was 0 n (%). For the same molecule, the Nasopharyngitis ([4]; TEAE, All PB2452 (N = 48)) was 1 (2.1) n (%), the Oropharyngeal pain ([4]; TEAE, All PB2452 (N = 48)) was 1 (2.1) n (%) and the Pharyngitis streptococcal ([4]; TEAE, All PB2452 (N = 48)) was 1 (2.1) n (%). For the same molecule, the Pneumonia aspiration ([4]; TEAE, All PB2452 (N = 48)) was 1 (2.1) n (%), the Skin abrasion ([4]; TEAE, All PB2452 (N = 48)) was 1 (2.1) n (%) and the Upper limb fracture ([4]; TEAE, All PB2452 (N = 48)) was 1 (2.1) n (%). For the same molecule, the “Vessel puncture site bruise” value ([4]; TEAE, All PB2452 (N = 48)) was 2 (4.2) n (%), the “deaths or adverse events leading to study drug discontinuation” value ([4]; human, in vivo) was “no deaths or adverse events leading to study drug discontinuation” and the drug-related adverse events ([4]; human, in vivo) was “no drug-related adverse events; also recorded: None of the adverse events was considered related to study drug”. The “study-drug related serious adverse events, dose-limiting toxicities, infusion-related reactions” value ([4]; human, in vivo) was “no study-drug related serious adverse events, dose-limiting toxicities, or infusion-related reactions; also recorded: no serious adverse events or infusion reactions associated with PB2452”, the “PB2452 exposure extended for” value ([5]; 18 gram dose level with 8- to 16-hour infusions) was 12 to 24 h and the estimated distribution half-life ([5]; IV, healthy subjects) was 0.86 h. The estimated terminal half-life ([5]; IV, healthy subjects) was 6.9 h, the volume of distribution ([5]; IV, healthy subjects) was “approximately 2.9 L” and the “dose dependence of mean exposure” value ([5]; dose range of 0.1 to 9.0 grams) was “dose-linear increases in mean exposure”. For the same molecule, the “VASP PRI restored, relative to baseline” value [6] was ~100 % of baseline, the “duration of restored VASP PRI” value [6] was 20 to 24 h and the “time to restoration of VASP PRI” value [6] was ≤ 5 min.
